These results are taken from patent US9814672B2, “Echogenic vehicle for clinical delivery of plasminogen activator and other fibrin-binding therapeutics to thrombi” (priority 2007, dated 2017).

Read-outs that look alike come from different tables or passages of the source.

The target in test [1] is T1, fibrin (Homo sapiens, UniProt P02671+P02675+P02679).
T1 construct: purchased Calbiochem (EMD Biosciences, Inc., La Jolla, Calif.)
T1 sequence (P02671 36-629 limits assumed): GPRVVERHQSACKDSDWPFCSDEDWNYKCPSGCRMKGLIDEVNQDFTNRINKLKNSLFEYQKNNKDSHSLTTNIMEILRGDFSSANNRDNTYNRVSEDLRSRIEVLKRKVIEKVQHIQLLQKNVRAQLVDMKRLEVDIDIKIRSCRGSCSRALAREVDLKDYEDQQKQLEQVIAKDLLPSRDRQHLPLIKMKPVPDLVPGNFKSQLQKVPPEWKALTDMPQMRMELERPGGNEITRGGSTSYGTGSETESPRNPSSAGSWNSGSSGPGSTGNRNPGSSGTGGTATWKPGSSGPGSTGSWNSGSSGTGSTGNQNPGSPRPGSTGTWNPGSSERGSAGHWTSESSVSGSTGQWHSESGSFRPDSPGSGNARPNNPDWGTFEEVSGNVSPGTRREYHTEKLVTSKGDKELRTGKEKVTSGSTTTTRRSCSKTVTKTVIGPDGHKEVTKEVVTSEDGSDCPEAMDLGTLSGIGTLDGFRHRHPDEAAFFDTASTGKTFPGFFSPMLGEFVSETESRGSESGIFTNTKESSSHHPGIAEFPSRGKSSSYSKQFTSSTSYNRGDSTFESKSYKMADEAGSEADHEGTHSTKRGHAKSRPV
T1 sequence (P02675 45-491 limits assumed): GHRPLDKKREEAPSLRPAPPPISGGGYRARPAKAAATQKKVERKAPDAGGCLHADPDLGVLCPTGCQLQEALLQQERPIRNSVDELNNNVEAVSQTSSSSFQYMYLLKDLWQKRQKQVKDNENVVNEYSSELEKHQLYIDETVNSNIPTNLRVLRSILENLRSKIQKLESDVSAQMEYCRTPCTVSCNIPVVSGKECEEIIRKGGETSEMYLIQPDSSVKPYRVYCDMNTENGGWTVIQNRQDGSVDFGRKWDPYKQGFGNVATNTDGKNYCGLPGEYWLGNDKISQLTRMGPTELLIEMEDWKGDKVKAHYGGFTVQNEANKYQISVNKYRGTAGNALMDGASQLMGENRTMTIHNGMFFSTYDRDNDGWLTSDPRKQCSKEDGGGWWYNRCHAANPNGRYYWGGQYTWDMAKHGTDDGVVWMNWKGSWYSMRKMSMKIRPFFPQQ
T1 sequence (P02679 27-437 isoform P02679-2 limits assumed): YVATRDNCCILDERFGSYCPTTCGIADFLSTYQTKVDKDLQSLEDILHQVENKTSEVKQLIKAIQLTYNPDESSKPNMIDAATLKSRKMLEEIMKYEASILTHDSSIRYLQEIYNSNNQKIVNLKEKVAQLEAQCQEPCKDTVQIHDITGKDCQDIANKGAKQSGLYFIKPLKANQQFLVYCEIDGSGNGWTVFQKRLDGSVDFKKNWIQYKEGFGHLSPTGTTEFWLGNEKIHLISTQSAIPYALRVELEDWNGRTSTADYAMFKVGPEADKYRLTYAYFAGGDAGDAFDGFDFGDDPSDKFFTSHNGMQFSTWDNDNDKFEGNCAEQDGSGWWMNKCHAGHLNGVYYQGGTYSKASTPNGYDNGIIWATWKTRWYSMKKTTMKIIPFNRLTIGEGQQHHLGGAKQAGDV
As to the kind of experiment: Two-stage fibrin pad ELISA, Scatchard and van't Hoff analysis. The test is classed as binding. To be noted: for Avidity: Kassoc × no. ligand molecules/liposome; for Kassoc: detergent-treated preparation. The protocol:
Added 100 μl 0.2% BSA/PBS to each well and incubated at 37° C. for 1 hour. All subsequent incubations were also at 37° C. Aspirated the wells and washed the plate 3× with PBS-T. Added Activase dilutions (10, 5, 2.5, 1.25, and 0.625 μg/ml PBS-T) to replicate wells ([…]). Incubated for 2 hours. Removed the contents of each well and pooled all samples within each dilution. Stored pooled samples at 4° C. For tPA-ELIP dilutions (in PBS), the third wash before adding the samples was with PBS. Stored the pooled tPA-ELIP samples in polypropylene tubes.
Added monoclonal anti-tPA capture antibody (Ab) (5 μg/ml coating buffer; […]) to rows B, C, E and G of a fresh microplate. Incubated in a humidified chamber at 4° C. overnight. All subsequent incubations were in humidified chambers at 37° C. at volumes of 50 μl/well, followed by aspiration of wells and 3× washes with PBS-T. Blocked all rows with conjugate buffer for 1 hour. Added tPA standards (50, 25, 12.5, 6.25 and 3.13 ng/ml) and pooled sample dilutions (in PBS-T) in duplicate to sample (B, C, E, G) and background (A, D, F, H) wells. Incubated for 2 hours. Added secondary detection Ab (10 μg sheep anti-tPA/ml 0.1% BSA in PBS-T) to all wells and incubated 1 hour, followed by a conjugate incubation (3,000× diluted with conjugate buffer; 1 hour). Added 50 μl of substrate buffer+500 of substrate (1 tablet/5 ml substrate buffer) to each well. Incubated at 37° for 15 minutes. Immediately quenched with 5 μl of 1M sodium hydroxide/well. Read the plate at 405 nm. Determined net absorbance (A405) by subtracting background OD from sample OD (e.g., B4-A4 or E7-F7).
Calculated the undiluted tPA concentrations of each pooled sample from the standard curve. These represented the free fractions ([F]) of the sample dilutions after equilibrium incubation with fibrin. Obtained the bound concentrations ([B]) by subtracting the free values from the total tPA concentration of the starting dilutions. Prepared Scatchard plots by plotting [B] (x-axis) vs. B/F (y-axis). The slope=−Kassoc and the y-intercept=Kassoc[n], where [n] was the concentration of exposed tPA binding sites on the fibrin pads.
Dilutions of untreated, sham-treated (control) and PPACK-treated (tPA(P)) tPA, as well as tPA(P) conjugated to ELIP (tPA(P)-ELIP), were incubated on replicate fibrin pads, prepared in microplate wells according to a modification of the method of Edgell et al. (1996). Human thrombin was added to a solution of 0.5 mg/ml of human fibrinogen in 0.02M phosphate-buffered saline, pH 7.4 (PBS), to a final concentration of 0.125 IU thrombin/ml; 100 μl of this solution was immediately added to each well and incubated at 37° C. for 45 minutes, followed by overnight drying of the plate at 45° C. After incubation with 100 μl/well of 0.2% BSA in PBS for 1 hour, samples (100 μl/well) were incubated for 2 hours at 37° C. For thermodynamic analyses, this incubation was performed at three temperatures (5, 24 and 37° C.). In order to determine the concentration of free tPA remaining in solution after incubation of tPA with fibrin, from which the concentration of bound tPA could be calculated for Scatchard analysis, the contents of duplicate wells were recovered, pooled and subsequently assayed for immunoreactive tPA in a standard quantitative sandwich ELISA.
Briefly, Nunc MaxiSorp microtiter plates were coated with 5 μg/ml of a monoclonal anti-tPA capture antibody (Ab) in 0.05M sodium bicarbonate, pH 9.6, overnight at 4° C. All incubation volumes were 50 μl/well. One-half of wells were left uncoated for determination of nonspecific binding. After aspirating well contents, all wells were blocked with conjugate buffer (1% BSA in 0.05M Tris buffer, pH 8.0, with 0.02% sodium azide) for 1 hour. From this point, all incubations were at 37° C. Each incubation was followed by aspiration of well contents and washes (3×) with PBS-T (PBS with 0.05% Tween 20). […]

A short description of test [2]: tPA enzyme activity after PPACK inactivation, paranitroanilide-substrate method. The test is classed as biochemical. As to conditions: S.E., n=3. The protocol:
Reconstituted tPA was incubated with a fivefold molar excess of PPACK in 0.2 M L-arginine in 0.05M phosphate buffer, pH 7.2, with 0.01% Tween 20 for 1 hour at room temperature, followed by dialysis against reaction buffer to remove unreacted PPACK. A control preparation was carried through the procedure without PPACK and all procedures involving PPACK were protected from light. Enzyme activity in PPACK-treated and control tPA preparations was measured with a […] paranitroanilide-substrate method (Ranby and Wallen, 1981).

Test [3] has as its target T1, fibrin. As to the kind of experiment: Two-stage fibrin pad ELISA, Scatchard and van't Hoff analysis. To be noted: undiluted fresh-frozen rabbit serum, 37° C.; read-out: binding affinity (KD) in serum. (In an ELISA, binding on a coated surface is turned into a signal by an enzyme label.)

For the substance Fibrinogen [reference compound], the cross-reactivity with fibrin at fibrin [1] (competition with tPA samples, Example 12) is 5%.

For “Sham (Control): tPA control preparation carried through the inactivation procedure without PPACK [reference compound]”, the Kd (in general, a measure of binding affinity in units of concentration) with fibrin [1] (S.E., n=3, read-out: High-Affinity KD @ 37° C.) was 5.92 nM. In addition, the “Percent Starting Activity” value in test [2] turned out to be 99.8%.

“tPA(P)-ELIP: PPACK-inactivated tPA conjugated by thioether linkage to MPB-ELIP (PC:MPB-PE:DPPG:CH 69:8:8:15); made without detergent or with 0.01% Tween 20”: the values for the Avidity with fibrin [1] (+Tween 20) and with fibrin [1] (No Detergent) were 0.151 M^−1/LIP × 10^12 and 0.480 M^−1/LIP × 10^12, respectively. Moreover, the “ΔS°” value with fibrin [1] (high affinity only) is given as “+14.7 cal/mole°”. For the same substance, the “ΔG°” value in the test with fibrin [1] (high affinity only, 278 K) was -46.4 kJ/mol; in the test with fibrin [1] (high affinity only, 297 K), -48.1 kJ/mol; with fibrin [1] (high affinity only, 310 K), -48.5 kJ/mol. Besides, the Kassoc is 5.83e+08 M⁻¹ with fibrin [1] (high affinity only, 278 K); 3.01e+08 M⁻¹ with fibrin [1] (high affinity only, 297 K); 1.51e+08 M⁻¹ in the test with fibrin [1] (high affinity only, 310 K). Also, the “ΔH°” value in the test with fibrin [1] (high affinity only, van't Hoff plot) is -29.6 kJ/mol. Moreover, the Kd stood at 6.62 nM with fibrin [1] (thiolation buffers: +Tween 20, read-out: KD @ 37° C.); 1.9 nM with fibrin [1] (thiolation buffers: No Detergent, read-out: KD @ 37° C.); 3.91 nM in the test with fibrin [3].
